Source: the RNAGym collection of RNA variant scans (doi:10.1093/molbev/msab373)

B1: Azoarcus group I ribozyme (parent)
chain: GUGCCUUGCGCCGGGAAACCACGCAAGGGAUGGUGUCAAAUUCGGCGAAACCUAAGCGCCCGCCCGGGCGUAUGGCAACGCCGAGCCAAGCUUCGGCGCCUGCGCCGAUGAAGGUGUAGAGACUAGACGGCACCCACCUAAGGCAAACGCUAUGGUGAAGGCAUAGUCCAGGGAGUGGCGAAAGUCACACAAACCGG

Variants of: B1
Test: reverse-splicing fitness (ratio to wild type); higher = more active; in vitro selection; Mg2+ level not given
Summary of the method: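 An in vitro group I ribozyme library with randomized positions was T7-transcribed and gel-purified. In triplicate, 10 pmol RNA in EPPS pH 7.5 was reacted with 50 pmoles of a 30-nt RNA substrate for 1 h at 37 °C across several added MgCl2 levels (1–48 mM), then stopped with EDTA. Products were reverse transcribed from a substrate-complementary primer, PCR-amplified and sequenced (HiSeq 4000). Fitness is a variant's read proportion after selection over that before, normalised to wild type.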

Row | Variant | reverse-splicing fitness
1 | C82U A111C A120U A145C C150A C169U U176G | 0.00207
2 | C82U A111C A120U A145C C150A C169U U176C | 0.00249
3 | C82U A111C A120G A145U C169A U176C | 0.01
4 | C82U A111C A120G A145U C169A U176A | 0.00825
5 | C82U A111C A120G A145U C169A U176G | 0.00418
6 | C82U A111C A120G C150U C169G | 0.00848
7 | C82U A111C A120G C150U C169A | 0.00877
8 | C82U A111C A120G C150U C169U | 0.00841
9 | C82U A111C A120G A145U C150A C169A U176C | 0.00775
10 | C82U A111C A120G A145U C150A C169A U176G | 0.00481
11 | C82U A111C A120G A145U C150A C169A U176A | 0.0102
12 | C82U A111C A120G C150G C169U U176C | 0.0121
13 | C82U A111C A120G C150G C169U U176A | 0.00853
14 | C82U A111C A120G C150G C169U U176G | 0.00505
15 | C82U A111C A120U A145G C150U C169A U176C | 0.00367
16 | C82U A111C A120U A145G C150U C169A U176G | 0.00262
17 | C82U A111C A120U A145G C150U C169A U176A | 0.00691
18 | C82U A111C A120U A145G C150G C169A | 0.00772
19 | C82U A111C A120U A145G C150G C169U | 0.0067
20 | C82U A111C A120U A145G C150G C169G | 0.00651
21 | C82U A111C A120U A145G C169A U176G | 0.00196

Row | Variant | reverse-splicing fitness
22 | C82U A111C A120U A145G C169A U176A | 0.00295
23 | C82U A111C A120U A145G C169A U176C | 0.0035
24 | C82U A111C A120U A145U C150G C169A U176G | 0.00233
25 | C82U A111C A120U A145U C150G C169A U176A | 0.00336
26 | C82U A111C A120U A145U C150G C169A U176C | 0.00322
27 | C82U A111C A120U A145C C169G | 0.00298
28 | C82U A111C A120U A145C C169A | 0.00236
29 | C82U A111C A120U A145C C169U | 0.0039
30 | C82U A111C A120G A145U C150G C169G | 0.00689
31 | C82U A111C A120G A145U C150G C169A | 0.00828
32 | C82U A111C A120G A145U C150G C169U | 0.00734
33 | C82U A111C A120G C150A C169U | 0.00789
34 | C82U A111C A120G C150A C169G | 0.00808
35 | C82U A111C A120G C150A C169A | 0.0101
36 | C82U A111C A120G A145G C150A U176A | 0.0093
37 | C82U A111C A120G A145G C150A U176G | 0.00528
38 | C82U A111C A120G A145G C150A U176C | 0.017
39 | C82U A111C A120G A145G C169A | 0.0105
40 | C82U A111C A120G A145G C169U | 0.00883
41 | C82U A111C A120G A145G C169G | 0.00926
42 | C82U A111C A120G C150G C169G U176G | 0.00455

Row | Variant | reverse-splicing fitness
43 | C82U A111C A120G C150G C169G U176C | 0.00488
44 | C82U A111C A120G C150G C169G U176A | 0.00584
45 | C82U A111C A120U A145U C150A | 0.00535
46 | C82U A111C A120U A145U C150G | 0.00613
47 | C82U A111C A120G C169G U176C | 0.0209
48 | C82U A111C A120G C169G U176G | 0.00413
49 | C82U A111C A120G C169G U176A | 0.0161
50 | C82U A111C A120U A145U C150A C169U | 0.00262
51 | C82U A111C A120U A145U C150A C169A | 0.00298
52 | C82U A111C A120U A145U C150A C169G | 0.00265
53 | C82U A111C A120U A145G C150U C169U U176G | 0.00271
54 | C82U A111C A120U A145G C150U C169U U176C | 0.00415
55 | C82U A111C A120U A145G C150U C169U U176A | 0.00522
56 | C82U A111C A120G A145U U176C | 0.0192
57 | C82U A111C A120G A145U U176G | 0.00452
58 | C82U A111C A120G A145U U176A | 0.0148
59 | C82U A111C A120U A145C C150G C169A U176A | 0.00289
60 | C82U A111C A120U A145C C150G C169A U176G | 0.0024
61 | C82U A111C A120U A145C C150G C169A U176C | 0.00245
62 | C82U A111C A120U A145G C150G | 0.00805
63 | C82U A111C A120U A145G C150U | 0.0233

Row | Variant | reverse-splicing fitness
64 | C82U A111C A120U A145G C150A | 0.00865
65 | C82U A111C A120G C169U U176G | 0.00376
66 | C82U A111C A120G C169U U176A | 0.0158
67 | C82U A111C A120G C169U U176C | 0.0142
68 | C82U A111C A120U A145G C169G U176C | 0.00344
69 | C82U A111C A120U A145G C169G U176G | 0.0017
70 | C82U A111C A120U A145G C169G U176A | 0.00323
71 | C82U A111C A120G C150U | 0.0115
72 | C82U A111C A120G C150G | 0.00744
73 | C82U A111C A120G C150A | 0.00908
74 | C82U A111C A120U A145C C169A U176C | 0.00244
75 | C82U A111C A120U A145C C169A U176G | 0.0017
76 | C82U A111C A120U A145C C169A U176A | 0.00241
77 | C82U A111C A120G A145G C150G U176C | 0.0103
78 | C82U A111C A120G A145G C150G U176G | 0.00607
79 | C82U A111C A120G A145G C150G U176A | 0.00693
80 | C82U A111C A120U A145C C150A C169G U176A | 0.00308
81 | C82U A111C A120U A145C C150A C169G U176G | 0.00223
82 | C82U A111C A120U A145C C150A C169G U176C | 0.00318
83 | C82U A111C A120G A145U C169U U176C | 0.0112
